Laboratory results from PMC3935945, “Insight into Highly Conserved H1 Subtype-Specific Epitopes in Influenza Virus Hemagglutinin” (PLoS ONE, 2014).

Biological target: T1, recombinant hemagglutinin (HA) of 2009 pandemic virus A/Korea/01/2009 (KR01) (Influenza A virus A/Korea/01/2009 (H1N1), strain)
T1 construct: also called KR01 HA; H1N1 HA
Assay: crystal structure
Conditions: both partners purified

B1: Fab fragment from H1-specific monoclonal antibody GC0587 (Fab, V domains shown)
VH: VKLQQSGGGVVQPGGSLRLSCAASGFTFSDYDMSWIRQAPGKGLEWVSGILGGSERSYYRDSVKGRFTISRDNSRKTLYLQMNSLRAEDTAVYYCARHGSPGYTLYAWDYWGQGTMVTVSS
VL: DIQMTQSPASLAVSPGQRATITCRASESVSNYGINFINWFQQKPGQPPKLLIYTASNKGTGVPARFSGSGSGTDFTLTINPVEAEDTANYFCQQTKEVPYTFGGGTKLEIK
notes: also called Fab0587
binding result: binds
